Source: the supplement of paper PMC9732359
± gives the uncertainty stated by the source.

Assay: protein stability index of a GFP-peptide fusion (yeast GPS) (PSI 1-4); higher = more stable; sorted into four equal gates, so the index is relative within each strain
Conditions: doa10∆
Procedure, shortened: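 Plasmids in a pooled yeast library fused tiled 17-residue yeast protein peptides downstream of GFP and also expressed Cherry. Mid-log cultures grown without leucine were sorted into four equal gates by GFP/Cherry fluorescence ratio. Each gate's plasmids were PCR-amplified and Illumina-sequenced, and reads were matched to strains by barcodes. The protein stability index is derived by multiplying each gate's read frequency by its gate number and summing the results.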
TGKITKMFQDIRLSKIL [CDC53] showed a protein stability index of 2.73 ± 0.07.

Same assay, conditions: pdr5∆
SPQKFETNLQTFLPPLL [ECM29] showed a protein stability index of 2.95 ± 0.06. Sequence SPSERIEPLEINIQSFK [BRR2] has a protein stability index of 2.53 ± 0.046. Work on SPTENGVFDPASYAKYL [RPL22A] yielded a protein stability index of 3.19 ± 0.061. SPTPIQRITIPNVCNMK [PRP28] gave a protein stability index of 2.16 ± 0.063. In the case of SQAFDIVAALPISEKGL [RPP1], the protein stability index is reported as 3.02 ± 0.2. In the case of SQEQGMGMDLYKTSKAA [FAS1], the protein stability index is reported as 3.15 ± 0.07. Work on SQFINDHILFTKTFIFI [SRB8] yielded a protein stability index of 1.48 ± 0.056. For SQFLKRVHANLQCISQI [SNF11], the protein stability index was 1.25 ± 0.041. For SQHKKILEELDFVRNEL [SMC3], the protein stability index was 3.09 ± 0.096. Work on SQRAQVVTMSVKSVNDP [RPC37] yielded a protein stability index of 2.4 ± 0.11. SQSSAAAGASVDDKRRN [RPN6] showed a protein stability index of 3.41 ± 0.088. SQVKDSVTETESISQTP [SRP68] showed a protein stability index of 3.02 ± 0.11. With SQYFKFKNDFNSFYYTS [RPN9] the protein stability index was 2.33 ± 0.06. With SRCHLVTKDTKKYSSKN [SRP68] the protein stability index was 2.8 ± 0.1. Work on SRGAVSGQKAGLIAARR [RPL2A] yielded a protein stability index of 3.32 ± 0.083. For SRHFASYANLPGTITHG [FAS1], the protein stability index was 2.82 ± 0.055. For SRILYKAIRGMVSHKTA [RPL16B], the protein stability index was 1.2 ± 0.066. SRIRVKIEGCISQVSSI [RPB7] gave a protein stability index of 1.75 ± 0.083. SRNGDFPRTRFEAQIDS [RPN10] showed a protein stability index of 3.28 ± 0.12. For SRPATTTRNGFMEAQGA [FAS2], the protein stability index was 2.18 ± 0.046. In the case of SRSNFQGKHTKFENDEL [LRP1], the protein stability index is reported as 2.99 ± 0.085. Sequence SSAKRSKNTAVSKVQKR [SRP72] has a protein stability index of 2.77 ± 0.11. For SSEQFNVWDWNNWTSAT [GAL11], the protein stability index was 3.17 ± 0.095. For SSFKKNLLKFITSNHKS [RPN3], the protein stability index was 1.5 ± 0.049. Work on SSFRPCPLSQQFCGIKE [BRR2] yielded a protein stability index of 1.9 ± 0.054. Sequence SSKTRNVLNRIQELEDQ [ITC1] has a protein stability index of 1.16 ± 0.051. In the case of SSLFLDGLEKAAFNGVT [FAS2], the protein stability index is reported as 2.12 ± 0.062. In the case of SSLFQEKLLETNVSKQN [ECM29], the protein stability index is reported as 2.55 ± 0.1. For SSLIKAGLDKGISINNM [RPO31], the protein stability index was 2.7 ± 0.079. Work on SSLSFGPENALNVYHYF [YJL039C/NUP192] yielded a protein stability index of 2.11 ± 0.038. Sequence SSLVRSCGEEEFFSTNW [REC8] has a protein stability index of 3.52 ± 0.18. SSNQSAPVETKKKRFEI [HRT1] showed a protein stability index of 3.3 ± 0.079. For SSPTLATGFGAHMANPL [PRE4], the protein stability index was 3.07 ± 0.097. SSQFVRLASEPGIISIT [YMR129W/POM152] gave a protein stability index of 2.14 ± 0.062. Work on SSQPLEPLSDTEEPDLA [DSN1] yielded a protein stability index of 2.69 ± 0.06. For SSTDIPSYTHVLISKLS [RRI1], the protein stability index was 2.42 ± 0.048. Sequence SSVTSDSMKYTISSLFV [RPC82] has a protein stability index of 2.3 ± 0.043. STANPNIKLLNNRMGSY [POP1] gave a protein stability index of 3.16 ± 0.083. Sequence STIEKDMKEYDSDKGSK [SMC2] has a protein stability index of 3.44 ± 0.071. With STKIIMLLLNDSVENSS [SRB8] the protein stability index was 2.15 ± 0.07. In the case of STLMPGGVDVGPSVESY [SNF5], the protein stability index is reported as 1.87 ± 0.083. STLSNWSSEFAKWAPTL [SNF2] showed a protein stability index of 2.45 ± 0.06. Work on STMTEPVKQSFIRKYIN [GAL11] yielded a protein stability index of 2.2 ± 0.065. Sequence STNSNSKPSTASPSAHT [RPN4] has a protein stability index of 3.01 ± 0.086. For STRLKKACKTADKLVNV [SRP68], the protein stability index was 3.26 ± 0.073. In the case of STSYHLNSTLESLYDLI [MED6], the protein stability index is reported as 2.62 ± 0.094. SVARVEDHDVHSNESSN [IRR1] showed a protein stability index of 2.99 ± 0.061. SVEEVILERAYKKLDID [SNF2] gave a protein stability index of 3.07 ± 0.24. SVFGFRTQFGGGKSVGF [RPS24A] gave a protein stability index of 2.23 ± 0.076. With SVFKGGMQNLIKKKKKK [SRP14] the protein stability index was 3.05 ± 0.3.
